How the values were obtained:
[1] = system: AuNP-PVGLIGC-PEG (cleavable)
[2] = biological target: AuNP-GIVGPLC-PEG (noncleavable negative control)
[3] = biological target: AuNP-PVGLIGC-PEG (cleavable); remark: listed apart in the source

Row | Molecule | cleavage of the peptide coating of the AuNP conjugate (UV-vis) [1] | cleavage of the peptide coating of the AuNP conjugate (DLS, zeta potential, UV-vis, TEM, FFF) [2] | cleavage of the peptide coating of the AuNP conjugate (DLS, zeta potential, UV-vis, TEM, FFF) [3]
1 | trypsin | Cleavable AuNPs treated with trypsin did not exhibit cleavage |  | 
2 | human matrix metalloproteinase (MMP-2) (protein) YNFFPRKPKWDKNQITYRIIGYTPDLDPETVDDAFARAFQVWSDVTPLRFSRIHDGEADIMINFGRWEHGDGYPFDGKDGLLAHAFAPGTGVGGDSHFDDDELWTLGEGQVVRVKYGNADGEYCKFPFLFNGKEYNSCTDTGRSDGFLWCSTTYNFEKDGKYGFCPHEALFTMGGNAEGQPCKFPFRFQGTSYDSCTTEGRTDGYRWCGTTEDYDRDKKYGFCPETAMSTVGGNSEGAPCVFPFTFLGNKYESCTSAGRSDGKMWCATTANYDDDRKWGFCPDQGYSLFLVAAHEFGHAMGLEHSQDPGALMAPIYTYTKNFRLSQDDIKGIQELYGASPDIDLGTGPTPTLGPVTPEICKQDIVFDGIAQIRGEIFFFKDRFIWRTVTPRDKPMGPLLVATFWPELPEKIDAVYEAPQEEKAVFFAGNEYWIYSASTLERGYPKPLTSLGLPPDVQRVDAAFNWSKNKKTYIFAGDKFWRYNEVKKKMDPGFPKLIADAWNAIPDNLDAVVDLQGGGHSYFFKGAYYLKLENQSLKSVKFGSIKSDWLGC |  | Non-cleavable control and blocker control AuNPs exhibited no cleavage | cleavable AuNPs were converted to denuded AuNPs following exposure to MMP-2

Source: patent US20130309172
